Where no end group is shown, it is not given here. [ ]: non-standard residue; d: D form. pY = N[C@@H](Cc1ccc(OP(=O)(O)O)cc1)C(=O)O
Legend:
[1] = biological target: T1, TrkB-PLCγ1 binding (Mus musculus, UniProt Q62077); test: Co-immunoprecipitation of TrkB and PLCγ1 from hippocampal homogenates after i.v. peptide; format: in vivo; details: 10 mg/kg i.v., 3 hr, hippocampus, compared to Scr
T1 construct: The hippocampi were rapidly dissected on ice and homogenized in RIPA buffer; from tissue; host or cells: hippocampus of naïve C57BL/6 mice
T1 sequence (Q62077 1-1302): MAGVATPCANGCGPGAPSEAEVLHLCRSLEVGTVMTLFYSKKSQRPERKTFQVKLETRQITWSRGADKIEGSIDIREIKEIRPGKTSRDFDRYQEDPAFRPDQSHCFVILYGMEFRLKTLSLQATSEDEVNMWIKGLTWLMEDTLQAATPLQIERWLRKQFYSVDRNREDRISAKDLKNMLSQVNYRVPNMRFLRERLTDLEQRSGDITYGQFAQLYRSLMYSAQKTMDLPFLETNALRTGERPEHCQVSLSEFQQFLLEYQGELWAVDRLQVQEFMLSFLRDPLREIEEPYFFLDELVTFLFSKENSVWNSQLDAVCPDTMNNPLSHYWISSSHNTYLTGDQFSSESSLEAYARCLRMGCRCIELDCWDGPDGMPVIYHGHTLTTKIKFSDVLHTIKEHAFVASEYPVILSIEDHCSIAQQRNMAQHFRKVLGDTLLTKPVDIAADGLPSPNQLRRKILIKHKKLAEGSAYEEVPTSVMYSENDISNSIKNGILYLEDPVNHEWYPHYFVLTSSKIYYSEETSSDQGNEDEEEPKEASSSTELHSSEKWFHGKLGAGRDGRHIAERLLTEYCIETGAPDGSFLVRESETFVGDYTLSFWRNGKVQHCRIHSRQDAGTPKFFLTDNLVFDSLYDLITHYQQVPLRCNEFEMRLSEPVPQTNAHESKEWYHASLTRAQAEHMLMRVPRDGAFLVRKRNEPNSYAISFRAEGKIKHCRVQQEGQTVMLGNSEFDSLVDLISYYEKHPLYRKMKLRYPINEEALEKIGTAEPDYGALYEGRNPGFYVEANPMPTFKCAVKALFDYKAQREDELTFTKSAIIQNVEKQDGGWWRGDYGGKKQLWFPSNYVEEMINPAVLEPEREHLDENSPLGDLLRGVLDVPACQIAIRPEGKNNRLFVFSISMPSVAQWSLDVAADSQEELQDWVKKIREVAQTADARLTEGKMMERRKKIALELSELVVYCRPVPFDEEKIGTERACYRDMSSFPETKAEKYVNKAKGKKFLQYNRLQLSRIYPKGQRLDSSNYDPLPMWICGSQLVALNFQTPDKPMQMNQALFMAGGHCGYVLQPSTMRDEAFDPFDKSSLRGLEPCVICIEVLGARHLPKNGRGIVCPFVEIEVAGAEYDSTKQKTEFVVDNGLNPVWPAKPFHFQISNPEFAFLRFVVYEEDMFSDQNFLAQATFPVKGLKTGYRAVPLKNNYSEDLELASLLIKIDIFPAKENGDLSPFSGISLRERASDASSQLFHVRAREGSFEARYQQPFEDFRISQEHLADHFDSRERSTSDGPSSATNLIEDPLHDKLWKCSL
Method: (§1) Animals were anesthetized with pentobarbital (200 mg/kg i.p.) and decapitated, and the head was quickly immersed in liquid nitrogen for 4 s to rapidly cool the brain. The hippocampi were rapidly dissected on ice and homogenized in RIPA buffer, incubated on ice for 15 min, and centrifuged at 200,000×g for 10 min at 4° C. The supernatant was collected and stored at −80° C. until further analysis. TrkB was immunoprecipitated using TrkB antibody (1:1000, Millipore) and the lysates were incubated with 100 μL of protein A-Sepharose beads (Roche) overnight in 4° C. The beads/immune complexes were pelleted in a microcentrifuge and then resuspended in RIPA buffer and this procedure was repeated two additional times before adding 2×SDS PAGE sample buffer and boiled. After SDS PAGE, the gels were probed with TrkB and PLCγ1 antibody (1:1000, Cell signaling). Western blotting was conducted as previously described (He et al., 2010). Cell lysate and hippocampal homogenate were probed with p-PLCγ1 (pY783), PLCγ1, p-Akt (pS473), Akt, p-ERK (p44/p42) and ERK (1:1000, Cell signaling). The immunoreactivity of individual bands on western blots was measured by ImageJ software (National Institutes of Health) and normalized to PLCγ1, Akt or ERK contents. Equivalent protein loading among samples was monitored by β-actin (1:10000; Sigma) levels. […]

[2] = tested on: ERK; test: p-ERK in hippocampal lysates of naive mice after i.v. peptide; format: in vivo, mouse; details: 10 mg/kg i.v., 3 hr
Method: as §1

YGRKKRRQRRR-LQNLAKASPVpYLDI (YGRKKRRQRRRLQNLAKASPV[pY]LDI) [pY816]
co-immunoprecipitation of TrkB and PLCγ1 [1]: inhibited the co-immunoprecipitation of TrkB and PLCγ1
p-ERK in hippocampal lysates [2]: neither p-Akt nor p-ERK was affected

Reference: patent US11129870B2, “Compositions and methods for uncoupling TrkB receptor from PLC gamma 1 for the treatment of epilepsy and anxiety-like disorder” (DUKE UNIVERSITY, priority 2010, dated 2021)
